The results in this text go back to patent publication US20210139542A1.

As usually defined, the Kd is the free concentration of one partner at which half of the binding sites on the other are occupied at equilibrium, for simple one-to-one binding. Broadly, the EC50 (read off the curve) is the midpoint of the concentration-response curve. A lower EC50 (read off the curve) goes with greater potency.

Experiment [1] concerns the target HEWL-Full24 (hen) (UniProt P00698). Put plainly: BLI, mAb on AHC biosensor, 100 nM antigen, footnote e bounds the value.
Experiment [2] has as its target HEWL-Full12 (hen) (UniProt P00698). The description is as above.
The target in experiment [3] is Hen Egg White Lysozyme (HEWL), wild type (hen) (UniProt P00698). The experiment in a line: BLI, mAb on AHC biosensor, 100 nM antigen. A general note: Biolayer interferometry detects binding as a change in optical thickness at a sensor tip.
The target in experiment [4] is HEWL-Hel-1024 (hen) (UniProt P00698). Put plainly: BLI, mAb on AHC biosensor, 100 nM antigen.
Experiment [5] concerns the target HEWL-Hel-102 (hen) (UniProt P00698). Put plainly: BLI, mAb on AHC biosensor, 100 nM antigen, footnote c bounds the value.
In experiment [6] the target is HEWL-Hel-1024 (hen) (UniProt P00698). The experiment is described as above.
The target in experiment [7] is HEWL-Full24 (hen) (UniProt P00698). The experiment is described as above.
Experiment [8] addresses HEWL-Hel-1012 (hen) (UniProt P00698). Described as above.
Experiment [9] concerns the target HEWL-Full12 (hen) (UniProt P00698). Described as above.
The target of experiment [10] is HEWL-Hel-104 (hen) (UniProt P00698). The description is as above.
The target in experiment [11] is HEWL-Hel-102 (hen) (UniProt P00698). The experiment in a line: BLI, mAb on AHC biosensor, 100 nM antigen.
Experiment [12] has as its target HEWL-Hel-1012 (hen) (UniProt P00698). Put plainly: BLI, mAb on AHC biosensor, 100 nM antigen.
Experiment [13] addresses HEWL-Hel-104 (hen) (UniProt P00698). Put plainly: BLI, mAb on AHC biosensor, 100 nM antigen.
In experiment [14] the target is Hen Egg White Lysozyme (HEWL), wild type (hen) (UniProt P00698). Put plainly: ELISA, HEWL derivative coated, antibody in tenfold dilutions, A450. Background: ELISA stands for enzyme-linked immunosorbent assay.

Chain of UniProt P00698 (P00698 19-147 limits assumed): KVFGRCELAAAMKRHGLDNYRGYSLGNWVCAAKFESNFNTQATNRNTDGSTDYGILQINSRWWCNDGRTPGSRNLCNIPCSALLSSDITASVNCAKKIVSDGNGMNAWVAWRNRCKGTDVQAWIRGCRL

For the substance D1.3 (antibody), the Kd turned out to be 11 nM with HEWL-Full24 (hen) [1], 27 nM with HEWL-Full12 (hen) [2], 0.58 nM in experiment [3] and 11 nM with HEWL-Hel-1024 (hen) [4].
Turning to HyHEL-5 (antibody), the Kd with HEWL-Hel-102 (hen) [5] turned out to be 0.12 nM; with HEWL-Hel-1024 (hen) [6] it was 0.2 nM; with HEWL-Full24 (hen) [7], 0.17 nM; with HEWL-Hel-1012 (hen) [8], 0.11 nM; with HEWL-Full12 (hen) [9] it was 0.36 nM; with HEWL-Hel-104 (hen) [10] it was 0.14 nM. This substance displayed a Kd in [3] of 0.018 nM.
As for HyHEL-10 (antibody), the Kd with HEWL-Hel-102 (hen) [11] turned out to be 0.068 nM; in the experiment with HEWL-Hel-1024 (hen) [4], 0.26 nM; with HEWL-Hel-1012 (hen) [12] it was 0.055 nM; with HEWL-Hel-104 (hen) [13] it was 0.091 nM.
Take D11.15 (antibody): the EC50 (read off the curve) in experiment [14] worked out at 0.5 nM. Besides, the dissociation constant (Kd) in [3] was determined as 2.3 nM.
